FireProtDB (doi:10.1111/j.1432-1033.1995.tb20713.x)

B1: Adenylate kinase, P07170 (parent)
chain: MSSSESIRMVLIGPPGAGKGTQAPNLQERFHAAHLATGDMLRSQIAKGTQLGLEAKKIMDQGGLVSDDIMVNMIKDELTNNPACKNGFILDGFPRTIPQAEKLDQMLKEQGTPLEKAIELKVDDELLVARITGRLIHPASGRSYHKIFNPPKEDMKDDVTGEALVQRSDDNADALKKRLAAYHAQTEPIVDFYKKTGIWAGVDASQPPATVWADILNKLGKD

Variants of: B1
Settings: Saccharomyces cerevisiae (strain ATCC 204508 / S288c), Thermal, Fluorescence, reversible: yes, structure 2AKY, whole UniProt chain shown; for unfolding free energy / ddG of mutation (higher = less stable): 25 °C

## T112H
pH 4.5, Acetic acid-NaOH 30 mM
  unfolding free energy: 0.72 kcal/mol
  Tm: 40.2 °C
  unfolding enthalpy (van 't Hoff): 31.1 kcal/mol
pH 7.6, MOPS-NaOH 30 mM
  unfolding free energy: 1.2 kcal/mol
  Tm: 42.9 °C
  unfolding enthalpy (van 't Hoff): 41.8 kcal/mol

## T79H
pH 5, Acetic acid-NaOH 30 mM
  unfolding free energy: 2.87 kcal/mol
  Tm: 46.8 °C
  unfolding enthalpy (van 't Hoff): 68.1 kcal/mol
pH 7.5, MOPS-NaOH 30 mM
  ddG of mutation (higher = less stable): 2.15 kcal/mol
  unfolding free energy: 1.67 kcal/mol
  Tm: 46.6 °C
  change of melting temperature, mutant - wild type (higher = more stable): -1.1 °C
  unfolding enthalpy (van 't Hoff): 50.2 kcal/mol

## V10I
pH 7.5, MOPS-NaOH 30 mM
  ddG of mutation (higher = less stable): 1.2 kcal/mol
  unfolding free energy: 2.63 kcal/mol
  Tm: 46.2 °C
  change of melting temperature, mutant - wild type (higher = more stable): -1.5 °C
  unfolding enthalpy (van 't Hoff): 64.5 kcal/mol

## N171D
pH 7.5, MOPS-NaOH 30 mM
  ddG of mutation (higher = less stable): 2.15 kcal/mol
  unfolding free energy: 1.67 kcal/mol
  Tm: 47.1 °C
  change of melting temperature, mutant - wild type (higher = more stable): -0.6 °C
  unfolding enthalpy (van 't Hoff): 47.8 kcal/mol

## I215F
pH 7.5, MOPS-NaOH 30 mM
  ddG of mutation (higher = less stable): 1.91 kcal/mol
  unfolding free energy: 1.91 kcal/mol
  Tm: 40 °C
  change of melting temperature, mutant - wild type (higher = more stable): -7.7 °C
  unfolding enthalpy (van 't Hoff): 59.8 kcal/mol
